Reference: article PMC7556403

What was measured:
[1] = target: MBP-APO1 mXT (dimeric form) M46A;R48S;I80T;W121A;L173A;W199A;F205A;del1-14 (human) (UniProt P41238); test: EMSA; details: no A1CF; dimeric form; 50 nM nucleic acid, 20 mM HEPES, 50 mM NaCl, 5 mM DTT, 10% glycerol (0.4 U RNase inhibitor for RNA), pH not stated for EMSA (HEPES pH 7.5 in protein buffers) …
[2] = target: MBP-APO1 mXT (aggregated form) M46A;R48S;I80T;W121A;L173A;W199A;F205A;del1-14 (human) (UniProt P41238); test: EMSA; details: no A1CF; aggregated form; weaker than WT; 50 nM nucleic acid, 20 mM HEPES, 50 mM NaCl, 5 mM DTT, 10% glycerol (0.4 U RNase inhibitor for RNA), pH not stated for EMSA (HEPES pH 7.5 in protein buffers) …

GGAUAUAUGAUACAAUUUGAUCAGUAUAUUAAAGAUAGUUAUGAUUUACAUGAUU [APOB RNA 55 nt]
Kd [1]: 0.14 µM
Kd [2]: 0.46 µM
